Experimental data from the supplement of paper PMC9170038.

Test system: K4 kissing-loop RNA reporter
Assay: apparent KD of K4 kissing-loop reporter; higher = weaker reporter binding
Conditions: Eterna round: R107
Procedure: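 RNA-MaP round R107: designed RNA switches with theophylline, tryptophan, arginine or FMN aptamers are transcribed on-chip within common flanks. They are titrated with a labelled K4 kissing-loop RNA reporter in RNA-MaP buffer (100 mM Tris pH 7.5, 80 mM KCl, 4 mM MgCl2), without ligand or with the indicated ligand. Median apparent KD per design.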

[1] = input ligand: theophylline 20 uM
[2] = input ligand: tryptophan 2.4 mM
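Also: bound reporter read as fluorescence of individual clusters on recovered sequencing chips by microscopy, with normalized cluster intensities fitted with a binding model.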

Sequence | apparent KD of K4 kissing-loop reporter (input ligand: FMN 200 uM) [nM] | apparent KD of K4 kissing-loop reporter (input ligand: arginine 13.2 mM) [nM] | apparent KD of K4 kissing-loop reporter (input ligand: none) [nM] | apparent KD of K4 kissing-loop reporter [1] [nM] | apparent KD of K4 kissing-loop reporter [2] [nM]
CCAUCCGAGUCGGCCGCCACUUUGAGUGAUGUUUGGAGUCUGAGUCAACAUAAAUACUUAGUUUAAAGGACCGGGACUUCGGAUG [theeternabot_exclusion_KL_Trp_B_7] | 773 | 722 | 1020 | 1060 | 363
ACUGAAAGAUCUGAUACCAGACUUUUUGUAUUUAUUAAAACUAGUGAUGUUAGUUUAUCUGUCCCUUGGCAGCAGUUUCUACAGA [JR_Nu_ExcTheophyB_Sub023] | 128 | 132 | 144 | 134 | 117
UUAGUCUAGAGAAGGAGCGAGUGAUGUUCGCAGCCCAAAUAAUAAUAAUAAUAAGGGCAUCCUCAGGUAGGUCGCUCUAGACAUU [AK5 Exc Arginine B] | 335 | 290 | 334 | 354 | 292
UUUAUAUUGUCGGCCGCCACUGGAUUAAUAUUUGUAUAAUCUAGUUCAAAGUGAUGUUUUGAGUCCAGGACCGGGACAUUUGAUA [JR_Nu_ExcTryptoB_Sub029] | 622 | 501 | 624 | 575 | 491
AAUAUAGUGAUGUUAUAUAAGAAGGAGUUACGAGGACCGGUACGGCCGCCACUCGAAACGAGUGAGGAUUUGGGAGAUUGGGUCC [SSTryptA.K] | 300 | 366 | 430 | 384 | 299
AGAACUGUCUGGGAUACCAGCCGAGGAGUGAUGUUCCGGCUCGACGAAACGUCGAGCCACGGCCCUUGGCAGCUCAGACAGUUCA [#21 K4 Theophylline B Same State] | 674 | 332 | 1050 | 1250 | 759
GGGUCAGUCUGAAGGAGCGGCCAGACAGAGCAGUGAUGUUGCUCCUCCGGAAACGGUGUCGGCCAGGUAGGUCGCAGAUUGGCUC [Dienralais mod v1] | 153 | 122 | 137 | 126 | 124
AGUGAUAUAUGAGGAUAUGGGUUUGUUAAUGAGUUAUUUUUAGUGUUGUUUGGUUAGUGAUGUUAUUUAGAAGGCGUGAGUGAUG [rrwswwmjmullin] | 93.7 | 89.4 | 81.9 | 111 | 76.5
AGUAAUGAGUGAUGUUCAAUUAGUAAGGAUACCAGUAAUUCAAAAUGCCCUUGGCAGCUUAACGCUACCAAUAGAUUAAUAAUGG [First try - Theophylline A] | 128 | 180 | 119 | 182 | 95.5
GCCGUAGAUGGAAGGAGCGUGGUGGACUCGUGAAGUGAUGUUUCAAGUCGAUAUGCCCAACCACAGGUAGGUCGCCAUCUACGGC | 206 | 161 | 169 | 198 | 174
CCGGCCCGGCCGGAUACCAGUGCGCCGCUGGGAACUGCGGGCCCAGAGUGAUGUUCGGGACACCCUUGGCAGCCGCCUGGGUCGC [#2 Same State - Theophylline B Attempt #25 (HarryS)] | 450 | 345 | 562 | 360 | 439
GGUAGCAUGGCGGCCGCCACUCGCAUCACAGGCCAUUAACCGCCCUCGUAAAGUGAUGUUUUACAGAGGACCGGGCCAUGCUACC | 331 | 257 | 297 | 323 | 195
CGGACGGUAUCGGCCGCCACUCUGAAGACAGUGAUGUUGUCCGUGCAGUAUUUAGGAAAGCCGCGGAGGACCGGGAUGCGUCACU [theeternabot_sameState_KL_Trp_B_48] | 374 | 150 | 232 | 253 | 340
AAACUUGCAGUGAUGUUGCAAGUAGGUGAUACCAGCAUCGAAAGAUGCCCUUGGCAGCACCAUCUUGCAACAAAGGUGCUGCCAA [(H1)-(H2)-(T1)-(T2)-(H)'-(T)'_Design7] | 87.5 | 77.4 | 88.2 | 67.6 | 81.2
AGGGAUGAUGGAUAAAUAAACAAAGGAGAUACCAGUCAAAUAAUAGGCCCUUGGCAGCUUCAGAUCAGUGAUGUUGAAGAUAUUG [#09 K4 Theophylline A Same State] | 109 | 67.1 | 139 | 148 | 110
UGAUACCAGACGGCCGCCACUCCUGCAAGUCAAAGACUUGCUAAAAGGAUCGUCCAGUGAUGUUGGAGGACCGGGUCUGGUAUCU [TrypBX 19 #SwitchBubble #Palindromic #StaticStem] | 795 | 621 | 744 | 638 | 486
UGGAGUUGACGAAAAGUCAACUCCUGAGAUACCAGUGACGAAAGUCACCCUUGGCAGCUCACUCCCAGUGAUGUUGGUUCAUAAG [#04 K4 Theophylline A Same State] | 328 | 370 | 601 | 496 | 356
CUCUAACUGAGAAGGAGCGCGAUAUAAACACUCGCACAGUGAUGUUGUGUGUCAAGGGUAUCGCAGGUAGGUCGCUCAGAUACCU [Arg B SS t15] | 294 | 247 | 255 | 273 | 248
UCUGGAGCAUAUGAUACCAGCAGUGAGAGACAGGAAGUAUAGUGAUGUUAUAUGAGAGAAUGCCCUUGGCAGCGUGUGCAGUGGG [SSTheophylB.O] | 119 | 157 | 108 | 119 | 75.2
UAGGGUUGAAAAGGAUAUUUACCCUAUGUCAACGAGUGAUGUUCGUGGACAUUAGGCACAACUCGUAAAGAAGGUUUCCAGACUC [theeternabot_sameState_KL_FMN_B_39] | 93 | 87.5 | 95 | 97.5 | 95.7
AAGUGUCAUUAGACACAGACUACAAUACACUAGGAUAUGCUGAUAAGCAGAAGGAGUGAUGUUCCUUUCAAGUAGUCAAUUAAAU [FmnAX 21 Mat Inspired #SwitchBubble #StaticStem #K4Late] | 237 | 148 | 143 | 178 | 140

Sequence | apparent KD of K4 kissing-loop reporter (input ligand: FMN 200 uM) [nM] | apparent KD of K4 kissing-loop reporter (input ligand: arginine 13.2 mM) [nM] | apparent KD of K4 kissing-loop reporter (input ligand: none) [nM] | apparent KD of K4 kissing-loop reporter [1] [nM] | apparent KD of K4 kissing-loop reporter [2] [nM]
AAUGUAUUCCACAUGAGUGAUGUUCAUGUGCGAGGACCGGUACGGCCGCCACUCGCAGUUGUGAUCAGUUCUGAAUACAUUAAUG [KL-XTryp-A3] | 229 | 225 | 219 | 235 | 331
GUACGGCGGGCGGCCGCCACUGGUAUACGAGUGAUGUUCGGAUAUACGUGAUGUAUGGUAAUUAACAGGACCGGGUCAGGGCCGG [whbob_SS_Tryp_B_t23] | 115 | 158 | 229 | 147 | 119
UUACUACCCAGUGAUGUUGGGUAGCGGCGGCGAGGACCGGUACGGCCGCCACUCGGCGCACGGGAGUGAUGUUCCUACCGUUAGG [Same state Tryptophan A GF 8] | 514 | 455 | 604 | 747 | 294
GUCCCAGUGAUGUUGGUAGGCGGGCGGGAUACCAGCGGAGACUCACGCCCUUGGCAGCCCACAUAUCCCGCGUAGGGAUUAGCCC [Same State - Theophylline A (Freestyle 23)] | 285 | 258 | 316 | 339 | 275
GGUAGCAUGGCGGCCGCCACUGAGGCCCUAUACGAGUCCUAAACAACCUAGUGAUGUUAGGAGUCCAGGACCGGGCCAUGCUACC | 271 | 175 | 254 | 262 | 440
UCUAGUUCUACGGCCGCCACUAUCGAGCACGGGUAUUAGUGAUGUUGAGGUCGUGUCUCCCUCCCUAGGACCGGGUAGAUCUUAG [theeternabot_sameState_KL_Trp_B_4] | 890 | 482 | 667 | 629 | 557
GGGAAGGAGUGAUGUUUCUUCUGAAUUUCUAAGGAUAUACGAUGCGGUAGAAGGUAGAUGCCUUGCAGGAAAUGUUCACCACGCG [theeternabot_exclusion_KL_FMN_A_2] | 218 | 146 | 150 | 184 | 158
UGUGAACAAAAGUAGAGUGGACCACUAUAGCGAGGACCGGUACGGCCGCCACUCGUACAUGUAUUCAGUGAUGUUGAAAUGAGCU [whbob_EX_Tryp_A_t15] | 200 | 319 | 268 | 362 | 150
UCUUGAGUAUAUGAUACCAGCAGUGAGAGACAGGAAGUAUAGUGAUGUUAUAUGAGAGAAUGCCCUUGGCAGCGUGUGCGGUGGG [SSTheophylB.S] | 103 | 144 | 112 | 187 | 94.7
AGGACGUGAGAAGAUACCAGAGAAUAAUGCAGUGAUGUUGCUAAAUAUAAUUUAAUAUAACUCCCUUGGCAGCUUAAGUUAGUCU [Theophylline b same state] | 75.2 | 120 | 98.7 | 115 | 73.9
AACUUGUUUGGAGGAUAUUCUUUAUUCGACAUAACCUUCUAUAAGGUGCAGUGAUGUUGCAAUAUAGGAGAAGGUCGAGUGAGAA [Exclusion FMN B Gf 16] | 207 | 169 | 206 | 219 | 186
GAUCUGAACGAAAGUUCGGAUCAUUCCGAUACCAGUAUGGAUUCAUACCCUUGGCAGCGGGAUUCUGCUAUGGAGUGAUGUUCCA [Theophylline A K4 15] | 422 | 332 | 475 | 400 | 362
GGAGGGAUCUCGGCCGCCACUCGUAAGAAAUGGGCCUCAGGGAUAUAGUGAUGUUAUGUAAAGAAGAGGACCGGGAGAAAGAAGG [ExTryptoB.Dd] | 222 | 208 | 247 | 306 | 209
GUAGCACUUGACAGUGAUGUUGUCAAGGACAAGGAUAUCAUCUCAAUGAGAAGGUGUCCUUGAUAACAGCUACGGGAAUAUCCCA [Omei KL FMN A Exc D v3] | 312 | 108 | 136 | 120 | 123
AAAACGCUGGAUGAAUAACAUCUAGCGAAUCGAGGACCGGUACGGCCGCCACUCGGAGCUAAACUGCGAGUGAUGUUCGUAAAAU [Mat - Mod of OpenEnded 3 - D18] | 405 | 223 | 588 | 426 | 428
UCCUGCAAUCGCCCACGAAAGUGGAUCGAUACCAGAGUCGAAAGACUCCCUUGGCAGCGAGUGAUGUUCGAAGCAGGUAAAUAAA | 771 | 612 | 765 | 605 | 637
GGAUAGGAUAGAGGAUAUGGAAAACACAGAAAUAACUUGUUGUGUUUAUCCAUAGGGAGUGAUGUUCCAGAAGGCUGUCCUAUCG [MatMod 20 - Jieux - Exclusion - FMN B] | 284 | 200 | 192 | 219 | 151
AAUGGGUGAUAAGGAUAUCCACCUCACAAACCAAGAGUGAUGUUCGUUGGUCCAUGGACAAUAUGUGGAGAAGGUAUAGUGAUUA [theeternabot_exclusion_KL_FMN_B_48] | 855 | 853 | 1000 | 747 | 700
UUUCGUUGAAGUGAUACCAGACUUGAAAGUGAUGUUUUCCAAUAAUUUAAAUUUUUAGCUGUCCCUUGGCAGCACAGUUUAUUUA [JR_Nu_ExcTheophyB_Sub025] | 210 | 363 | 275 | 401 | 181
UAUAGACAAGUGAUGUUUGUCAUAUCCGAAGGAGCGUCUUCUAAGACAGGUAGGUCGCGGAUUAAUUUUGUUAUGAUACUAUUUA [JR_SSArginiA_Sub016] | 122 | 120 | 126 | 133 | 104
AAAAUAAUCCAGUGAUGUUGGUCUCCAGAUACCAGCGACGAAAGUCGCCCUUGGCAGCUGUGGACGUACAAAAUAAGUACGUCCU | 366 | 416 | 464 | 345 | 314
